Here are results for 1 molecule from patent publication US20160376321A1 (BAYLOR COLLEGE OF MEDICINE, published 2016).

This experiment has as its target soluble ACE2 (sACE2), containing 6xHis tag (R&D Systems) (human, UniProt Q9BYF1 18-740). Briefly: Ni-NTA pull-down with His-tagged sACE2, Western blot (FIG. 7B-C). For orientation: Immunoblotting shows a protein as a band on a membrane.

B1: recombinant protein containing RBD of Middle East respiratory syndrome coronavirus (MERS-CoV) (other)
chain: QAEGVECDFSPLLSGTPPQVYNFKRLVFTNCNYNLTKLLSLFSVNDFTCSQISPAAIASNCYSSLILDYFSYPLSMKSDLSVSSAGPISQFNYKQSFSNPTCLILATVPHNLTTITKPLKYSYINKCSRFLSDDRTEVPQLVNANQYSPCVSIVPSTVWEDGDYYRKQLSPLEGGGWLVASGSTVAMTEQLQMGFGITVQYGTDTNSVCPKL
Take B1: the binding result is given as “no binding (tested: 20 µg)”.
